# From patent US20260028402A1 (published 2026)
# Where two headings read alike, the source gives them in different places.
# T1: MusCD100-Fc (mouse, UniProt O09126 24-733, biotinylated in the Plexin binding and blocking assays (sites not given))
# T1 chain: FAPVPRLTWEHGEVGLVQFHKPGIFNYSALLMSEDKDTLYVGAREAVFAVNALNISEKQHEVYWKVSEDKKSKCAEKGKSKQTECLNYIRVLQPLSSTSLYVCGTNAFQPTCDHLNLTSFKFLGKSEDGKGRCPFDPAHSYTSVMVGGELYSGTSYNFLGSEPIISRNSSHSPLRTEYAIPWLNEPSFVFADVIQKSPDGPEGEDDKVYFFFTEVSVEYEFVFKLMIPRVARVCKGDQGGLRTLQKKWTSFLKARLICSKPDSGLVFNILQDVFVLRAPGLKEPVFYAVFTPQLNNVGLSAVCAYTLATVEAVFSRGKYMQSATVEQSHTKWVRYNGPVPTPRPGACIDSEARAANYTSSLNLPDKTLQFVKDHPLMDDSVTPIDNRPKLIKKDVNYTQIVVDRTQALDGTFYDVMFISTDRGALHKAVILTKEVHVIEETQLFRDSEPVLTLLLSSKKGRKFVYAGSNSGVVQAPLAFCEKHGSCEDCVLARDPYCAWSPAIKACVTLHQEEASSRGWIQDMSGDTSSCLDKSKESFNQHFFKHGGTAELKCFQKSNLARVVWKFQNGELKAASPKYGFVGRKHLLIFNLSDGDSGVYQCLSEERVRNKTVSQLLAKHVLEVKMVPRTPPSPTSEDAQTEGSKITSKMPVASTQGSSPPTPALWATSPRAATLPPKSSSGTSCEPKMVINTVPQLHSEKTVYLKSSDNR
# T2: MusCD100-His (mouse, UniProt O09126 24-733)
# T2 chain: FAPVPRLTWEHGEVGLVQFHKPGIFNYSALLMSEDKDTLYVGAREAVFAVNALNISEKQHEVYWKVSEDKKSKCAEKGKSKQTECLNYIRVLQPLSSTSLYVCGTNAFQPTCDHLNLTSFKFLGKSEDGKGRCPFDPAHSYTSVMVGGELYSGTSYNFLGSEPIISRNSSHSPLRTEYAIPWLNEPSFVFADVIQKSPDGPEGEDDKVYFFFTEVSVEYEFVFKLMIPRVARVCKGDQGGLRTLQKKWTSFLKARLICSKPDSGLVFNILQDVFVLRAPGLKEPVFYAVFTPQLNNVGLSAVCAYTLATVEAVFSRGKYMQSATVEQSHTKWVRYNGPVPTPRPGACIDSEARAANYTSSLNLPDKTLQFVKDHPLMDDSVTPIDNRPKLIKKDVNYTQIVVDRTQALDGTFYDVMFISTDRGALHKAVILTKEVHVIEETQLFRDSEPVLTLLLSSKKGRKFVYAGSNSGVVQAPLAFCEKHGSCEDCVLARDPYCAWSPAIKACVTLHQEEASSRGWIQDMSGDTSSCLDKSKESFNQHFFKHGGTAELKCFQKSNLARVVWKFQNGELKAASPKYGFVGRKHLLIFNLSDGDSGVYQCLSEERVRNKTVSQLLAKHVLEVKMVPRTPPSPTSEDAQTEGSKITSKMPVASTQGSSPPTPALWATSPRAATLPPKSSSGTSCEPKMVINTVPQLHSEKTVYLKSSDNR
# What was measured:
# MusCD100-Fc = target: T1, MusCD100-Fc; test: FACS blocking; MusPlexin-B1-HEK293, FIG. 12F
# [1] = target: T3, HuCD100-Fc (in-house prepared) (human, UniProt Q92854 22-734, biotinylated in the Plexin binding and blocking assays (sites not given)); test: FACS blocking; HuPlexin-B2-HEK293, FIG. 12D
# [2] = target: T3, HuCD100-Fc (in-house prepared); test: FACS blocking; HuPlexin-B2-HEK293, FIG. 12C
# HuCD100-His [3] = target: T4, HuCD100-His (human, UniProt Q92854 22-734); test: ELISA; FIG. 5D
# CynoCD100-His [4] = target: CynoCD100-His (cynomolgus monkey); test: ELISA; FIG. 5F
# [5] = target: T5, full-length human CD100 protein HuCD100 on cells (human, UniProt Q92854 22-862); test: FACS; HuPBMC cells
# [6] = target: Human Semaphorin 4D/SEMA4D/CD100 Protein, Fc Tag (Acro, CD0-H5257) (human, UniProt Q92854 22-734); test: ELISA; last HuCD100-Fc row
# HuCD100-His [7] = target: T4, HuCD100-His; test: ELISA; FIG. 5A
# CynoCD100-HEK293 [8] = target: CynoCD100-HEK293 (cynomolgus monkey); test: FACS
# MusCD100-His [9] = target: T2, MusCD100-His; test: ELISA; FIG. 5E
# [10] = target: T3, HuCD100-Fc (in-house prepared); test: FACS blocking; HuPlexin-B1-HEK293, FIG. 12A
# CynoCD100-His [11] = target: CynoCD100-His (cynomolgus monkey); test: ELISA; FIG. 5C
# CynoCD100-Fc = CynoCD100-Fc (cynomolgus monkey); test: ELISA
# CynoCD100-His [12] = target: CynoCD100-His (cynomolgus monkey); test: ELISA
# HuCD100-His [13] = target: T4, HuCD100-His; test: ELISA
# MusCD100-His [14] = target: T2, MusCD100-His; test: ELISA
# CynoCD100-HEK293 [15] = target: CynoCD100-HEK293 (cynomolgus monkey); test: FACS; remark: listed apart in the source
# [16] = target: T3, HuCD100-Fc (in-house prepared); test: FACS blocking; blocking of binding to HuPlexin-B1-HEK293
# [17] = target: T5, full-length human CD100 protein HuCD100 …; test: FACS; Jurkat cells
binder,measurement,setting,value
"Pepinemab (antibody, V domains shown) VH: QVQLVQSGAEVKKPGSSVKVSCKASGYSFSDYYMHWVRQAPGQGLEWMGQINPTTGGASYNQKFKGKATITVDKSTSTAYMELSSLRSEDTAVYYCARYYYGRHFDVWGQGTTVTVSS VL: DIVMTQSPDSLAVSLGERATINCKASQSVDYDGDSYMNWYQQKPGQPPKLLIYAASNLESGVPDRFSGSGSGTDFTLTISSLQAEDVAVYYCQQSNEDPYTFGQGTKLEIK",IC50,MusCD100-Fc,5.44 nM
same,IC50,[1],2.06 nM
same,IC50,[2],1.45 nM
same,EC50,HuCD100-His [3],0.0376 nM
same,EC50,CynoCD100-His [4],0.0993 nM
same,EC50,[5],0.479 nM
same,EC50,[6],0.0659 µg/mL
same,EC50,HuCD100-His [7],0.0383 nM
same,EC50,CynoCD100-HEK293 [8],0.132 nM
same,EC50,MusCD100-His [9],0.143 nM
same,IC50,[10],0.896 nM
same,EC50,CynoCD100-His [11],0.117 nM
same,EC50,CynoCD100-Fc,0.388 µg/mL
same,EC50,CynoCD100-His [12],0.128 µg/mL
same,EC50,HuCD100-His [13],0.122 nM
same,EC50,MusCD100-His [14],0.0908 nM
same,EC50,CynoCD100-HEK293 [15],0.365 nM
same,IC50,[16],3.56 nM
same,EC50,[17],0.275 nM
